B1: TPR t1 (parent)
chain: GACCAAUCUGCCCUCAGAGCUCGAGAACAUCUUCGGAUGCAGAGGAGGCAGGCUUCGGUGGCGCGAUAGCGCCAACGUCCUCAACCUCCAAUGCAUCCCACCACAUGAUGAUGCCUGAAGAGCCUUGGUUUUUUG

Variants of: B1
Assay: polymerase ribozyme fitness, log enrichment relative to wild type (log ratio); higher = more active; in vitro selection for triplet polymerase activity
Method in brief: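 One round of in vitro selection, in triplicate, was applied to PCR-built, transcribed mutant libraries of each subunit of a heterodimeric triplet polymerase ribozyme. The steps were annealing with a biotinylated primer, partner subunit and triplets, incubation frozen at −7 °C, gel excision of extended constructs, streptavidin-bead capture and RT-PCR. Fitness is the logarithm, base 2, of genotype enrichment over wild-type enrichment from inverse-variance-weighted replicate averages of Illumina-sequenced inputs and outputs, keeping genotypes with ≥10 input reads and ≥1 read per output.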

Variant	polymerase ribozyme fitness (log ratio)
GACCAAUCUGCCAUGAGAGCUCGAGAACAUCUUCGGUUGCAGAGGAGGCAGGCUUCGGUGGCGCGAUAGCGCCAACGUCCUCAACCUCCAAUGCAUCCCACCCCAUGAUGAUGCCUGAAGAGCCUUGGUUUUUUG [C13A C15G A37U A103C]	-6.73
GACCAAUCUGCCAUCAGAGCUCGAGAACAUCUUCGGAUGCAGAGGAGGUAGGGUUCGGUGGCGCGAUAGCGCCAACGUCCUCAACCUCCAAUGCAUCCCACCACAUGAUGACGCCUGAAGAGCCUUGGUUUUUUG [C13A C49U C53G U112C]	-2.14
GACCAAUCUGCCAUCAGAGCUCGAGAACAUCUUCGGAUGCAGAGGAGGCAGGCUUCGGUGGCGCGAUAGCGCCAACGUCCUCAAUCUCCAAUGCAUCCCCCCACAUGAUGAUGCCUGAAGAGCCUUGGUUUUUUG [C13A C85U A100C]	-3.76
GACCAAUCUGCCAUCAGAGCUCGAGAACAUCUUCGGAUGCAGAGGAGGCAGGCUUUGGAGGCGCGAUAGCGCCAACGUCCUCAACCUCCAAUGCAUCCCACCACAUGAUGAUGCCUGAAGAGCCUUGGUUUUUUG [C13A C56U U59A]	-2.77
GACCAAUCUGCCAUCAGAGCUCGAGAACAUCUUCGGAUGCAGAGGAGGCAGGAUUCGGUGGCGCGAUAGCGCCAACGUCCUCAACCUCCAAUGCAUCCCACCACAUGAUGAUGCCUGAAGAGCCUUGGUUUUUUG [C13A C53A]	-0.605
GACCAAUCUGCCAUCAGAGUUCGAGAACAUCUUCGGAAGCAGAGGAGGCAGGCUUCGGUGGCGCGAUAGCGCCAACGUCCUCAACCUCCAUUGCAUCCCACCACAUGAUGAUGCCUGAAGAGCGUUGGUUUUUUG [C13A C20U U38A A91U C124G]	-1.87
GACCAAUCUGCCAUCAGAGUUCGAGAACAUCUUCGGAUGCAGAGGAGGCAGGCUUCGGUGUCGCGAUAGCGUCAACGUCCUCAACCUCCAAUGCAUCCCACCACAUGAUGAUGCCUGAAGAGCCUUGGUUUUUUG [C13A C20U G61U C72U]	-3.24
GACCAAUCUGCCAUCAGAGCUCGAGAACAUCUUCGGAUGCAGAGGAGGCAGGCUUCGGUGGCGCGAUAGCGCCAACGUCCUCAACCUCCAAUGCAUCCCACCUCAUGUUGAUGCCUCAAGAGCCUUGGAUUUUUG [C13A A103U A108U G117C U129A]	-6.73
GACCAAUCUGCCAUUAGAGCUCGAGAACAUCUUCGGAUGCAGAAGAGGUAGGCUUCGGUGGCGCGAUAGCGCUAACGUCCUCAACCUCAAAUGCAUCCCACCACAUGAUGAUGCCUGAAGAGCCUUGGUUUUUUG [C13A C15U G44A C49U C73U C89A]	-4.76
GACCAAUCUGCCAUCAGAGCUAGAGAACAUCUUCGGAUGCAGAGGAGGCAGGCUUCGGUGGCGCGAUAGCGCCAACGUCCUCAACCUCCAAUGCAUCCCACCACAUGAUGAUGCCUGAAGAGCCUUGGUUUUUUG [C13A C22A]	-5.41
GACCAAUCUGCCAUCAGAGCUUGAGAACAUCUUCGGAUGCAGAGGAGGCAGGCUUCGGUGGCGCGAUAGCGCCAACGUCCUCAACCUCCAAUGCAUCCCACCACAUGAUGAUGCCUGAAGAGCCUUGGUUUUUUG [C13A C22U]	-4.99
GACCAAUCUGCCAUCAGAGCUCGAGAACAUCUUCGGAUGCAGAGGAGGCAGGCUUCGGUGGCGCGAUAGGGCCAACGUCCUCAACCUCCAAUGCAUCUCACCACAUGAUGAUGCCUGAAAAGCCUUGGUUUUUUG [C13A C70G C98U G120A]	-2.39
GACCAAUCUGCCAUCAGAGUUCGAGAACAUCUUCGGAUGCAGAGGAGGCAGGCUUCGGUGUCGCGAUAGCGCCAACGUCCUCAACCUCCAAUGCAUCCCACCACAUGAUGAUGCCUGAAGAGCCUUGGUUUUUUG [C13A C20U G61U]	-2.05
GACCAAUCUGCCAUCAGAGCUCGAGAACAUCUUCGGAUGAAGAGGAGGCAGGCUUCGGUGGCGCGAUAGCGCCAACGUCCUCAACCUCCAAUACAUCCCACCACAUGAUGAUGCCUGUAGAGCCUUGGCUUUUUG [C13A C40A G93A A118U U129C]	-3.28
GACCAAUCUGCCAUCAGAGCUCGAGAACAUCUUCGGAUGCAGAGGAGGCAGGCUUCGGUGGCGCGAUAGCGCCAACGUCCUCAAGCUCCAAUGCAUCCCACCACAUGAUGAUGCCUGAAGAGUCUUGGUUUUUUG [C13A C85G C123U]	-0.463
GACCAAUCUGCCAUCAGAGCUCGAGAACAUCUUCGGAUGCAGAGGAGGCAGGCUUCGGUGGCGCGAUAGCGGCAACGUCCUAAACCUCCAAUGUAUCCCACCACAUGAUAAUGCCUGAAGAGCCUUGGUUUUUUG [C13A C72G C82A C94U G110A]	-3.05
GACCAAUCUGCCAUCAGAGCUCGAGAACAUCUUCGGAUGCAGAGGAGGCAGGAUUCGGUGGCGCGAUAGCGCCAACGUCCUCAACCUCCAAUGCAUCCCACCACAUGAUGAUGCCUGAAUAGCCUUGGUUUCUUG [C13A C53A G120U U132C]	-0.539
GACCAAUCUGCCAUCAGAGCUCGAGAACAUCUUCGGAUGCAGAGGAGGCAGGCUUCGGUGGCGCGAUAGCGUCAACGUCCUCCGCCUCCAAUGCAUCCCACCACAUGAUGACGCCUGAAGAGCCUUGGUUUUUUG [C13A C72U A83C A84G U112C]	-1.46
GACCAAUCUGCCAUCAGAGCUCGAGAACAUCUUCGGAUGCAGAGGAGGCAGGGAUCGGUGGCGCGAUAGCGCCAACGUCCUCAACCUCCAAUGCAUCCCACCACAUGAUGAUGCCUCAAGAGCCUUGGUUUUUUG [C13A C53G U54A G117C]	-4.98
GACCAAUCUGCCAUCAGAGCUCGAGAACAUCUUCGGAUGCAGAGGAGGCAGGCUUCGGUGGCGCGAUAGCGGCAACGUCCUCGACCUCCAAUGCAUCCCACCACAUGAUGAUGCCUGAAGUGUCUUGGUUUUUUG [C13A C72G A83G A121U C123U]	-0.305
GACCAAUCUGCCAUCAGAGCUCGAGAACAUCUUCGGAUGCAGAGGAGGCAGGCUUCGGUGGCGCGAUAGCGCAAACGUCCUCAACCUCCAAUGCAUCCCACCACAUGAUGAUGCCUGAAAAGACUUGGUUUUUUG [C13A C73A G120A C123A]	-0.951

From the RNAGym collection of RNA variant scans (doi:10.1073/pnas.2313332121)
